Measurements taken from article PMC8347774, “Construction of Fluorescent Immunosensor Quenchbody to Detect His-Tagged Recombinant Proteins Produced in Bioprocess” (Sensors (Basel, Switzerland), 2021).
Substitutions are numbered along the chain they refer to. The star is where a group is joined. Biotin = O=C1N[C@H]2[C@H](CS[C@H]2CCCCC(=O)*)N1

T1: His6 peptide (antigen of the fluorescence assays) (synthetic peptide)
T1 construct: His6; The materials name only the biotinylated His6 peptide as synthesised; it may be the same peptide as m17
T1 chain: HHHHHH

T2: biotinylated His6 peptide (bio-EGGGSHHHHHH-COOH) (synthetic peptide, SMILES …)
T2 construct: spacer EGGGS and His6; Held on streptavidin biosensors by its biotin; source: synthetic peptide (PSSM-8 peptide synthesizer)
T2 chain: Biotin-EGGGSHHHHHH-OH

B1: 5-TAMRA C6 maleimide double-labeled WW Fab 3D5 Q-body (Fab, V domains shown)
VH: QVQLQQSGPEDVKPGASVKISCKASGYTFTDWWMNWVKQSPGKGLEWIGDINPNNGGTSYNQKFKGRATLTVDKSSSTAYMELRSLTSEDSSVYYCESQSGAYWGQGTTVTVSA
VL: DILMTQTPSSLPVSLGDQASISCRSSQSIVHSNGNTYLEWYLQKPGQSPKLLIYKVSNRFSGVPDRFSGSGSGTDFTLKISRVEAEDLGVYYCFQGSHVPFTFGSGTKLEIK
notes: VH of antibody 3D5, as the VH of m7 with the stated changes; numbers count on: Kabat numbering of the heavy chain; CH1 of the vector pUQ2, as in m7; VL of antibody 3D5, as the light chain of m7; CL of the vector pUQ2, as the light chain of m7; m8 labelled with two dyes; also called WW TAMRA; source: E. coli SHuffle T7 Express with pGro7, purified (Talon IMAC), labelled, purified (anti-FLAG M2 …)
B2: 5-TAMRA C6 maleimide double-labeled YW Fab 3D5 Q-body (Fab, V domains shown)
VH: B1 VH with W32Y
VL: B1 VL
notes: VH of antibody 3D5, as the VH of m7 with the stated change; numbers count on: Kabat numbering of the heavy chain; CH1 of the vector pUQ2, as in m7; VL of antibody 3D5, as the light chain of m7; CL of the vector pUQ2, as the light chain of m7; m9 labelled with two dyes; also called YW TAMRA; source: E. coli SHuffle T7 Express with pGro7, purified (Talon IMAC), labelled, purified (anti-FLAG M2 …)
B3: ATTO520-C2 maleimide double-labeled WW Fab 3D5 Q-body (Fab, V domains shown)
VH: B1 VH
VL: B1 VL
notes: VH of antibody 3D5, as the VH of m7 with the stated changes; numbers count on: Kabat numbering of the heavy chain; CH1 of the vector pUQ2, as in m7; VL of antibody 3D5, as the light chain of m7; CL of the vector pUQ2, as the light chain of m7; m8 labelled with two ATTO520 dyes; also called WW ATTO520; WW-ATTO520; source: E. coli SHuffle T7 Express with pGro7, purified (Talon IMAC), labelled, …
B4: ATTO520-C2 maleimide double-labeled YW Fab 3D5 Q-body (Fab, V domains shown)
VH: B1 VH with W32Y
VL: B1 VL
notes: VH of antibody 3D5, as the VH of m7 with the stated change; numbers count on: Kabat numbering of the heavy chain; CH1 of the vector pUQ2, as in m7; VL of antibody 3D5, as the light chain of m7; CL of the vector pUQ2, as the light chain of m7; m9 labelled with two ATTO520 dyes; also called YW ATTO520; YW-ATTO520; source: E. coli SHuffle T7 Express with pGro7, purified (Talon IMAC), labelled, …
B5: 5-TAMRA C6 maleimide double-labeled wild-type Fab 3D5 Q-body (Fab, V domains shown)
VH: B1 VH with W32Y, W33Y
VL: B1 VL
notes: VH of antibody 3D5, as in m7; CH1 of the vector pUQ2, as in m7; VL of antibody 3D5, as the light chain of m7; CL of the vector pUQ2, as the light chain of m7; m7 labelled with two dyes; also called Wild-type TAMRA; source: E. coli SHuffle T7 Express with pGro7, purified (Talon IMAC), labelled, purified (anti-FLAG M2 beads, G-25); not shown: Cys-tag, N-terminal, kept; His6, C-terminal, kept; myc, …
B6: ATTO520-C2 maleimide double-labeled wild-type Fab 3D5 Q-body (Fab, V domains shown)
VH: B1 VH with W32Y, W33Y
VL: B1 VL
notes: VH of antibody 3D5, as in m7; CH1 of the vector pUQ2, as in m7; VL of antibody 3D5, as the light chain of m7; CL of the vector pUQ2, as the light chain of m7; m7 labelled with two ATTO520 dyes; also called Wild-type ATTO520; source: E. coli SHuffle T7 Express with pGro7, purified (Talon IMAC), labelled, purified (anti-FLAG M2 beads, G-25); not shown: Cys-tag, N-terminal, kept; His6, C-terminal, …
B7: anti-His scFv 3D5 WW variant (scFv, V domains shown)
VH: B1 VH
VL: B1 VL
B8: anti-His Fab 3D5 WW variant (Fab, V domains shown)
VH: B1 VH
VL: B1 VL
B9: anti-His scFv 3D5 (wild-type) (scFv, V domains shown)
VH: B1 VH with W32Y, W33Y
VL: B1 VL
notes: VH of antibody 3D5 (anti-C-terminal His tag); numbers count on: Kabat numbering of the heavy chain; linker between VH and VL of the VH-VL type scFv (synthesised gene in pEX-K4J2-1KTR); VL of antibody 3D5; VH-VL order, vector pSQ (3D5); also called wild-type scFv; source: E. coli SHuffle T7 Express with pGro7, purified (Talon IMAC); not shown: Cys-tag, N-terminal, kept; His6, C-terminal, kept; …
B10: 5-TAMRA C6 maleimide-labeled wild-type scFv 3D5 Q-body (scFv, V domains shown)
VH: B1 VH with W32Y, W33Y
VL: B1 VL
notes: VH of antibody 3D5, as in m1; linker between VH and VL, as in m1; VL of antibody 3D5, as in m1; m1 labelled with one dye; also called wild-type scFv Q-body; source: E. coli SHuffle T7 Express with pGro7, purified (Talon IMAC), labelled, purified (anti-FLAG M2 beads, G-25); not shown: Cys-tag, N-terminal, kept; His6, C-terminal, kept; FLAG, C-terminal, kept
B11: anti-His Fab 3D5 (wild-type) (Fab, V domains shown)
VH: B1 VH with W32Y, W33Y
VL: B1 VL
notes: VH of antibody 3D5; numbers count on: Kabat numbering of the heavy chain; CH1 of the vector pUQ2 (Fd = VH-CH1); VL of antibody 3D5; CL of the vector pUQ2 (Lc = VL-CL); Linker-less pUQ2 (3D5): the (GGGS)4 linker between Cys-tag and VH was removed; His6 is followed by myc on the heavy chain; also called wild-type Fab; source: E. coli SHuffle T7 Express with pGro7, purified (Talon IMAC); not shown: …
B12: anti-His Fab 3D5 YW variant (Fab, V domains shown)
VH: B1 VH with W32Y
VL: B1 VL
notes: VH of antibody 3D5, as the VH of m7 with the stated change; numbers count on: Kabat numbering of the heavy chain; CH1 of the vector pUQ2, as in m7; VL of antibody 3D5, as the light chain of m7; CL of the vector pUQ2, as the light chain of m7; YW read as Tyr kept at 32H and Trp at 33H; source: E. coli SHuffle T7 Express with pGro7, purified (Talon IMAC); not shown: Cys-tag, N-terminal, kept; His6, …

Target: anti-SARS-CoV-2 VHH nanobody tagged with a hinge, 3xFLAG and C-terminal His tags
Test: other fluorescence titration
Conditions: not given

B1 and B2 are within 1.5-fold of each other in EC50: 11500 nM for the first, 11100 nM for the second.

First: B3
Second: B4
The EC50 of the first is 3.6-fold higher: 10700 nM for the first, 3000 nM for the second. The second is the more potent here.

Target: T1, His6 peptide (antigen of the …)
Test: other fluorescence titration; Q-body de-quenching in solution with His6 peptide at varied concentrations, PBST, plate reader; EC50 from a four-parameter logistic fit
Conditions: both partners purified

B1 and B2 are within error of each other in EC50: 89500 ± 25400 nM for the first, 54700 ± 9500 nM for the second.

B3 and B4 are within error of each other in EC50: 8800 ± 1300 nM for the first, 6100 ± 1400 nM for the second.

Compared with B5, B6 is 9.6-fold lower in EC50: 132000 ± 34000 nM for the first, 13800 ± 5100 nM for the second.

Target: T2, biotinylated His6 peptide …
Test: BLI; biotinylated His6 peptide (100 nM) loaded on streptavidin biosensors; unlabeled protein or Q-body in two-fold dilutions in Kinetic buffer (phosphate, 150 mM NaCl, 0.002% Tween20, 0.1% BSA, pH 7.4); global fit, 1:1 model; Octet K2
Conditions: not given

Compared with B7, B8 is 17-fold lower in Kd: 2.88 nM for the first, 0.17 nM for the second.

Work on B1 yielded a Kd of 1.72 nM.

Compared with B7, B8 is 37-fold lower in koff: 0.000835 s⁻¹ for the first, 2.27e-05 s⁻¹ for the second.

In the case of B1, the koff is reported as 0.000455 s⁻¹.

Compared with B7, B8 is 2.2-fold lower in kon: 290000 M⁻¹ s⁻¹ for the first, 132000 M⁻¹ s⁻¹ for the second.

B1 showed a kon of 264000 M⁻¹ s⁻¹.

Same assay, conditions: both partners purified

Compared with B2, B9 is 3.8-fold higher in Kd: 1.31 nM for the first, 5.03 nM for the second.

Compared with B10, B11 is 7.4-fold lower in Kd: 26.8 nM for the first, 3.62 nM for the second. The second binds more tightly here.

Compared with B12, B5 is 4.2-fold higher in Kd: 0.76 nM for the first, 3.19 nM for the second. The first binds more tightly here.

B2 and B9 are within 1.5-fold of each other in koff: 0.000512 s⁻¹ for the first, 0.000425 s⁻¹ for the second.

Going from B10 to B11, the koff falls from 0.00303 s⁻¹ to 9.93e-05 s⁻¹ (31-fold).

Going from B12 to B5, the koff rises from 0.000105 s⁻¹ to 0.000672 s⁻¹ (6.4-fold).

Compared with B2, B9 is 4.6-fold lower in kon: 392000 M⁻¹ s⁻¹ for the first, 84500 M⁻¹ s⁻¹ for the second.

Compared with B10, B11 is 4.1-fold lower in kon: 113000 M⁻¹ s⁻¹ for the first, 27400 M⁻¹ s⁻¹ for the second.

First: B12
Second: B5
The kon of the first is 1.5-fold lower: 139000 M⁻¹ s⁻¹ for the first, 210000 M⁻¹ s⁻¹ for the second.

Same assay, conditions: record 2

For B1, the Kd was 3.19 nM.
